From patent US20220267443A1 (published 2022) come the findings set out here.

Assay in all cases: SPR
Background: In SPR one partner is held on a chip, and binding of the other changes the refractive index at the surface.

The target of assay [1] is recombinant human CTLA-4-Fc (R&D Systems, #7268-CT) (UniProt P16410 36-161).
Assay [2] has as its target recombinant cynomolgus CTLA-4-Fc (Sino Biological, #90213-C02H).
The target in assay [3] is Cynomolgus CTLA-4 monomer.
For the next assay, the target named is Human CTLA-4 monomer.

What is called Kd is a measure of binding affinity in units of concentration.

Sequence of recombinant human CTLA-4-Fc (R&D Systems, #7268-CT) (P16410 36-161): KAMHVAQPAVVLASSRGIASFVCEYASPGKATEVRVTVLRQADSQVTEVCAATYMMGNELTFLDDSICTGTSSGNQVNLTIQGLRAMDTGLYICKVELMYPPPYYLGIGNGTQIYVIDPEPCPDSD
Sequence of recombinant cynomolgus CTLA-4-Fc (Sino Biological, #90213-C02H) (chain, as listed by the source C02H): as the sequence (P16410 36-161) above, with S14N, L106M counted along it

B1: AGEN2041w (antibody)
heavy: EVQLVESGGGLVKPGGSLRLSCAASGFTFSSYSMNWVRQAPGKGLEWVSSISSSSSYIYYADSVKGRFTISRDNAKNSLYLQMNSLRAEDTAVYYCARVGLMGPFDIWGQGTMVTVSSASTKGPSVFPLAPCSRSTSESTAALGCLVKDYFPEPVTVSWNSGALTSGVHTFPAVLQSSGLYSLSSVVTVPSSNFGTQTYTCNVDHKPSNTKVDKTVERKCCVECPPCPAPPVAGPSVFLFPPKPKDTLMISRTPEVTCVVVDVSHEDPEVQFNWYVDGVEVHNAKTKPREEQFNSTFRVVSVLTVVHQDWLNGKEYKCKVSNKGLPAPIEKTISKTKGQPREPQVYTLPPSREEMTKNQVSLTCLVKGFYPSDIAVEWESNGQPENNYKTTPPMLDSDGSFFLYSKLTVDKSRWQQGNVFSCSVMHEALHNHYTQKSLSLSPG
light: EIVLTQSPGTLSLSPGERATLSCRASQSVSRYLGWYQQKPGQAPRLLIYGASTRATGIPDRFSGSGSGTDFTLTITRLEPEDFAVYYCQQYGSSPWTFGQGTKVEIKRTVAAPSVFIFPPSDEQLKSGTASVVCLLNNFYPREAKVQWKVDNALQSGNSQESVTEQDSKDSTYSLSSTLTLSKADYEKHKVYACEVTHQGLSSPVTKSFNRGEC
As to B1, the Kd in assay [1] was 1.7 nM; in assay [2], 4.4 nM; in assay [3], 2.1 nM; with Human CTLA-4 monomer, 2 nM.
